The values that follow come from patent US20210070819A1 (INSERM INSTITUT NATIONAL DE LA SANT ET DE LA RECHERCHE M …, published 2021).

The target of one experiment is T1, HLA-A*02:01 (human).
T1 construct: also called HLA-A2; A2
As to the kind of experiment: experimental HLA-A2 peptide binding assay, format not described (data not shown).

Experiment [1] deals with T2, biotin-tagged HLA-A*03:01 monomers (immunAware) (human, biotin tag).
T2 construct: Bought monomers folded around the test peptide; also called HLA-A3; A3
As to the kind of experiment: flow cytometry bead assay: biotinylated HLA-A*03:01 monomer folded with peptide, captured on streptavidin beads, detected with anti-β2-microglobulin BBM.1; 1.2 nM complex (data not shown). (A flow cytometer gives signals particle by particle.)

As for YLQGQRLDNV [SCG5186-195], the binding result with HLA-A*02:01 is recorded as “binds”.

In the case of FLSGAVNRL (also called SCG-009186-194) [SCG5-009186-194], the binding result with HLA-A*02:01 is listed as “binds”.

In the case of RLKPSLVGK [SCG5-009193-201], the binding result in experiment [1] is given as “binds”.
